Test: soluble on expression in E. coli; label from the status in PepcDB or PDB records

Sequence | soluble on expression in E. coli
MPSYKLTYFNARGYGEAARILFHLADVPFEDFRMTHGDGTWEKLKEKTPLGQVPVLSVDGFEIPQSAAIIRYLANKFGYAGKTPEEQAWADAIVDQFKDFMGSFREVGKAHAAGKPAEEIAKIMQSDVVPARDAFFVIINGILEKSKSGFLVGDGLTFADIVVVECITTLDKNQLFTPAGEPKLVALREKVYAIPAIKKWVEIRPDTQY | not soluble
SESDSEMVPFPQLPMPIENNYRACTIPYRFPSDDPKKATPNEISWINVFANSIPSFKKRAESDITVPDAPARAEKFAERYAGILEDLKKDPESHGGPPDGILLCRLREQVLRELGFRDIFKKVKDEENAKAISLFPQVVSLSDAIEDDGKRLENLVRGIFAGNIFDLGSAQLAEVFSRDGMSFLASCQNLVPRPWVIDDLENFQAKWINKSWKKAVIFVDNSGADIILGILPFARELLRRGAQVVLAANELPSINDITCTELTEILSQLKDENGQLLGVDTSKLLIANSGNDLPVIDLSRVSQELAYLSSDADLVIVEGMGRGIETNLYAQFKCDSLKIGMVKHLEVAEFLGGRLYDCVFKFNEVQS | soluble
MTAASLDPTAFSLDAASLAARLDAVFDQALRERRLVGAVAIVARHGEILYRRAQGLADREAGRPMREDTLFRLASVTKPIVALAVLRLVARGELALDAPVTRWLPEFRPRLADGSEPLVTIHHLLTHTSGLGYWLLEGAGSVYDRLGISDGIDLRDFDLDENLRRLASAPLSFAPGSGWQYSLALDVLGAVVERATGQPLAAAVDALVAQPLGMRDCGFVSAEPERFAVPYHDGQPEPVRMRDGIEVPLPEGHGAAVRFAPSRVFEPGAYPSGGAGMYGSADDVLRALEAIRANPGFLPETLADAARRDQAGVGAETRGPGWGFGYLSAVLDDPAAAGTPQHAGTLQWGGVYGHSWFVDRALGLSVLLLTNTAYEGMSGPLTIALRDAVYAR | soluble
MFAVDPQMNQTVNSPKGQLLLRTLAMPADTNANGDIFGGWIMSQLDLAGGILAKEISCGRIVTVSVSSITFKKPVKVGDVVCCYGECTKIGRTSMSINLEVWVKPVKEEGVGERFQVCEATFNYVAIDANGRPRAISLSNGSQKSSLEHHHHHH | not soluble
MRLLLAAPHSGAGKTTVSLALLLALRARGLRVQPFKVGPDYIDPTHLEKAAARRPYNLDGFFLDETGLLALFRHGARGADFALIEGVMGLFDGKDPRGEVGSTAQVARLLKAPVALVVDAKGMAGSIAPLALGFRDFHPGVRVVGVFANRVGSERHAEILKEALKAVGLPLLGWLPQDPALELPERHLGLVLAGEVAPPLEALRRAFRVDLEGVLRLAASAPPLPEARPFLPPRRPPRARVAYAWDKAFSFYYPEALELLEALGAELVPFSPLEDEALPKAHALLLGGGYPELFAERLSANVALREAIRRFPGPIVAECGGYMYLSQGLWVGERFFPMVGLVPGEARMAERPVLGYREVEALRDSPVARKGQAFKGHEFHYARLPASPSPAWRRLGGEEVEGYTDGRVLASFVHLYLPARPEGVERLLGLASRGKAAGASLEHHHHHH | not soluble
APTMTEFVGTAGGDTVGLVIANVDSLLHKHLGLDNTCRSIGIISARVGAPAQMMAADEAVKGTNTEVATIELPRDTKGGAGHGIFIVLKAADVSDARRAVEIALKQTDKYLGNVYLCDAGHLEVQYTARASLIFEKAFGAPSGQAFGIMHAAPAGVGMIVADTALKTADVKLITYGSPTNGVLSYTNEILITISGDSGAVLQSLTAARKAGLSILRSMGQDPVSMSKPTF | soluble
MGSDKIHHHHHHMQDFSNLVEKVENTLIPYFRKIEKRALFNQEKVLNAFHHVKASESDLQGSTGYGYDDFGRDHLEQIYAHTFKADDALVRPQIISGTHAITLALQSTLKNNDELLYITGSPYDTLLEVIGINGNGVESLKEYGVRYNEVELRDGRIDIPKVITAINDNTKVVAIQRSKGYDQRPSITINEIEQAITSIKEVYPNIIIFVDNCYGEFVEDKEPIEVGADLIAGSLIKNPGGGLAKIGGYIAGRQDLIERCGYRLTAPGIGKEAGASLNSLQEMYQGFFLAPHVVSQSLKGALFTSLLLEKINMKTSPKYNVYRTDLIQTVQFETKEQMISFCQSIQHASPINAHFSPEPSYMPGYEDDVIMAAGTFIQGSSIELSADGPIRPPYEAYVQGGLTYEHVKLAVTRAVQHMQENNLL | not soluble
SLEQENMEQRVKHESEELLQKFKSTSNLDELIESLGGLGEEAQREAGESLEALKRPVKEMMNDENNHLPQKLHQLKEVVSQLEPDHLKQGAVKKFVNKILGRSPMEQYAQRYKTVEAQVENIIEALLTGKDKLQEDTLMLTQLKGVARERISHLEEQIEMGKQLNAMLESEMTSEEWKNNPTALKKGQQKVISRIKNMSQAIMVLQQSLASVDLIVENNEKLEEAIFNAITMTKNIITVTASIQLALGNQKKVINAVQNVNEATENMLLSNAEMLKKNTEDTLKTLEEPAIAIESFRKAYQDVFAAIELTEQSNERIVSSGKKFIAELDTLNKEMKTKLIESKSTSSS | soluble
SNAMTEARKIPKPSFPYGSPGELNSFLPYLLTRITHIWSSELNQALASEKLPTPKLRLLSSLSAYGELTVGQLATLGVMEQSTTSRTVDQLVDEGLAARSISDADQRKRTVVLTRKGKKKLAEISPLINDFHAELVGNVDPDKLQTCIEVLGEILKGKTDY | soluble
MAPSSRWDAMGPKNSYRSVHGRIVPELLESSVARVRPLQYVQRQPSQASARSGANPTHRPSAEVRPVIRTGEMTHSSVIPPLAPGVRRVSLGYESSPSGSLPPLFNQESPWRRQDSYSPQNPAVSHKASLNSTILQGPADAGVVGGQSWNRAWEPARGAASWDTWRNKAVVPPRRSGEPMVSMQAAEEIRILAVITIQAGVRGYLARRRIRLWHRGAMVIQATWRGYRVRRNLAHLCRATTTIQSAWRGYSTRRDQARHWQMLHPVTWVELGSRAGVMSDRSWFQDGRARTVSDHRCFQSCQAHACSVCHSLSSRIGSPPSVVMLVGSSPRTCHTCGRTQPTRVVQGMGQGTEGPGAVSWASAYQLAALSPRQPHRQDKAATAIQSAWRGFKIRQQMRQQQMAAKIVQATWRGHHTRSCLKNTEALLGPADPSASSRHMHWPGI | not soluble
MSLKGDDIEEGKELVATHIAEGLYHDGKFVGYVKRAHDVDVNLNAHTMFENLVVKASGVLSAIQMLRHSKIDPAEIDYVIECSEEACGDINQRGGGNFAKSIAEIAGLQNATGSDTRGFCAAPTHALIQAAALVKAGIHKNVMVVAGGASAKLGMNAKDHVKKGLPVLEDVVGGFAVLVSENDGVNPVIRTDLTGKHTVGTGSSPQAVMTALITSGLDRANLKITDVDVYSVEMQNPDITKPAGAGDVPEANYKMIGALAVKRGDLEKKELKDFVSNKGLPGWAPTQGHIPSGAPYIGFLIDDLTTGNRNRAMIVGKGSLFLGRMTNLFDGVSFIAERNTGVTEETSGISKDEIKKIIAESMKKLALDMLEEGHHHHHH | not soluble
MGNIKVTRDDWLNVAMDVLVSDGVEQVKVMNLAERMAVSRSSFYWYFKSRQDLLDALLAKWQATNTAGLIAQTELPAQTITGAVCNLFHCVVDPALFDTALDFAVRDWARRSGKVRRLLDLSDSRRLEALTAMFLRYDYSQIEAETRARVLYYMQIGYDLAQMNEPIDQRLSFVRHYLFVFTGVQARDEEVAAFSAFARGFWEGRRP | not soluble
MGSDKIHHHHHHAVTTGNTPVTAEFAGGTLPDGNGVPNTVDPDPTKPNSNFDLLFIPREYDFGKLSISDDLTKPIPNKTDEGRAGNVESVGVGDIRGSKEGWHVTAQSTGMKLGEESLEGSITTGAMFLYPLIYNEETKTYDYQSADLADPVTKPETVDTTAFSIALGGDAVLLANATAGKGQGLWQFSFRPYLNITTPAYNIKAGAYTGNITWNLVAGPSI | not soluble
MTSLEKARELLREFPVVDGHNDLPWALREQVRYDLDARDIAADQSAHLHTDLARLRSGGVGAQYWSVYVRSDLPGAVTATLEQIDCVRRLIDRHPGELRAALTAADMEAARAEGRIASLMGAEGGHSIDNSLATLRALYALGVRYMTLTHNDNNAWADSATDEPGVGGLSAFGREVVREMNREGMLVDLSHVAATTMRDALDTSTAPVIFSHSSSRAVCDHPRNIPDDVLERLSANGGMAMVTFVPKFVLQAAVDWTAEADDNMRAHGFHHLDSSPEAMKVHAAFEERVPRPVATVSTVADHLDHMREVAGVDHLGIGGDYDGTPFTPDGLGDVSGYPNLIAELLDRGWSQSDLAKLTWKNAVRVLDAAEDVSRGLRAARGPSNATIEQLDGTAAEQPEG | soluble

Reference: the DeepSol protein solubility set
